The nature of one data set: SEC-MALS. The following applies: glycan lost; control: native rshACE2.
Data set [1] can be described thus: Mca-Ala-Pro-Lys(Dnp) hydrolysis, spectrofluorimetry. The conditions noted are these: glycan lost; control: native rshACE2.

For “rshACE2 (recombinant soluble human ACE2, APN01): PNGase F (deglyco-rshACE2)”, the oligomerisation entry in the data set “SEC-MALS” is reported as “no change”. The “enzymatic_activity, percent_of_wt” value in data set [1] is given as “increases”.
